Results as given in US20190353642A1 (WUHAN INSTITUTE OF VIROLOGY CHINESE ACADEMY OF SCIENCES, published 2019).

B1: Flag-tagged NS5A derived from HCV genotype 2a strain JFH1 (pRK-Flag-NS5A), full length (other)
chain: SGSWLRDVWDWVCTILTDFKNWLTSKLFPKLPGLPFISCQKGYKGVWAGTGIMTTRCPCGANISGNVRLGSMRITGPKTCMNTWQGTFPINCYTEGQCAPKPPTNYKTAIWRVAASEYAEVTQHGSYSYVTGLTTDNLKIPCQLPSPEFFSWVDGVQIHRFAPTPKPFFRDEVSFCVGLNSYAVGSQLPCEPEPDADVLRSMLTDPPHITAETAARRLARGSPPSEASSSVSQLSAPSLRATCTTHSNTYDVDMVDANLLMEGGVAQTEPESRVPVLDFLEPMAEEESDLEPSIPSECMLPRSGFPRALPAWARPDYNPPLVESWRRPDYQPPTVAGCALPPPKKAPTPPPRRRRTVGLSESTISEALQQLAIKTFGQPPSSGDAGSSTGAGAAESGGPTSPGEPAPSETGSASSMPPLEGEPGDPDLESDQVELQPPPQGGGVAPGSGSGSWSTCSEEDDTTVCC
notes: not shown: Flag tag from vector pRK-7 Flag
B2: HA-tagged full length NS5A (other)
chain: B1 chain
notes: also called HA-tagged NS5A; not shown: HA tag from vector pRK-7 HA
B3: NS5A of HCV JFH1 in infected Huh7.5.1 cells (other)
chain: B1 chain
notes: also called endogenous NS5A
B4: flag-tagged truncated CD2AP 1-107 aa (other)
chain: MVDYIVEYDYDAVHDDELTIRVGEIIRNVKKLQEEGWLEGELNGRRGMFPDNFVKEIKRETEFKDDSLPIKRERHGNVASLVQRISTYGLPAGGIQPHPQTKNIKKK
notes: Contains the first SH3 domain; not shown: Flag tag
B5: flag-tagged truncated CD2AP 1-330 aa (other)
chain: MVDYIVEYDYDAVHDDELTIRVGEIIRNVKKLQEEGWLEGELNGRRGMFPDNFVKEIKRETEFKDDSLPIKRERHGNVASLVQRISTYGLPAGGIQPHPQTKNIKKKTKKRQCKVLFEYIPQNEDELELKVGDIIDINEEVEEGWWSGTLNNKLGLFPSNFVKELEVTDDGETHEAQDDSETVLAGPTSPIPSLGNVSETASGSVTQPKKIRGIGFGDIFKEGSVKLRTRTSSSETEEKKPEKPLILQSLGPKTQSVEITKTDTEGKIKAKEYCRTLFAYEGTNEDELTFKEGEIIHLISKETGEAGWWRGELNGKEGVFPDNFAVQINE
notes: Contains all three SH3 domains; not shown: Flag tag
B6: flag-tagged truncated CD2AP 1-268 aa (other)
chain: MVDYIVEYDYDAVHDDELTIRVGEIIRNVKKLQEEGWLEGELNGRRGMFPDNFVKEIKRETEFKDDSLPIKRERHGNVASLVQRISTYGLPAGGIQPHPQTKNIKKKTKKRQCKVLFEYIPQNEDELELKVGDIIDINEEVEEGWWSGTLNNKLGLFPSNFVKELEVTDDGETHEAQDDSETVLAGPTSPIPSLGNVSETASGSVTQPKKIRGIGFGDIFKEGSVKLRTRTSSSETEEKKPEKPLILQSLGPKTQSVEITKTDTEGKI
notes: not shown: Flag tag

Experiments:
[1] = biological target: T1, HA-tagged CD2AP (pRK-HA-CD2AP), human, full length (human, UniProt Q9Y5K6 1-639); assay: co-IP with anti-flag antibody from HEK 293T cells over-expressing both, blot with anti-HA
T1 construct: Over-expressed in HEK 293T cells and tested in cell lysate by co-IP; also called CD2 associated protein; not shown: HA tag from vector pRK-7 HA

[2] = biological target: T2, flag-tagged truncated CD2AP 60-639 aa (human, UniProt Q9Y5K6 60-639); assay: co-IP with anti-flag antibody, HEK 293T cells, blot with anti-HA
T2 construct: No first SH3 domain, all other CD2AP domains kept; also called CD2AP lacking the first SH3 domain; not shown: Flag tag
T2 sequence (Q9Y5K6 60-639): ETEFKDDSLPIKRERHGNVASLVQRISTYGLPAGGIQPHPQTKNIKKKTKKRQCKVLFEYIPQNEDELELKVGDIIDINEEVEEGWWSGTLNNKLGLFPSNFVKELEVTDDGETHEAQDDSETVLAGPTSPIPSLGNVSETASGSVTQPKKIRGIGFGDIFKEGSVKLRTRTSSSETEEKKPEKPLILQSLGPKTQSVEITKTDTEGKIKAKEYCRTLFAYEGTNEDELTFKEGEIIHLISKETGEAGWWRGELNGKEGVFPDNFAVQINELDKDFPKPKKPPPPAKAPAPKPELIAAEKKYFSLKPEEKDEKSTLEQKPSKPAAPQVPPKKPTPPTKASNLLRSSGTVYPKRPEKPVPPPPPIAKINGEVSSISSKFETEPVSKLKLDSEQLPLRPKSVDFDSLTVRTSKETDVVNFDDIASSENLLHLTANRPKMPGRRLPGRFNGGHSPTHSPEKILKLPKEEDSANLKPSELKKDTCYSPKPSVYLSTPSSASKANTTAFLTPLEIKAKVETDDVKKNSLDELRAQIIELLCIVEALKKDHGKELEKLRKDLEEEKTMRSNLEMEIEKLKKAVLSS

[3] = biological target: T3, flag-tagged CD2AP 1-639 aa (full length) (human, UniProt Q9Y5K6 1-639); assay: as above
T3 construct: also called Full length CD2AP; not shown: Flag tag

[4] = biological target: T4, CD2AP, endogenous, in Huh7.5.1 cells (human, UniProt Q9Y5K6 1-639); assay: endogenous co-IP, both directions, Huh7.5.1 cells infected with HCV JFH1
T4 construct: Endogenous protein of human hepatoma Huh7.5.1 cells, in cell lysate

[5] = biological target: B2; assay: co-IP with anti-flag antibody, HEK 293T cells, blot with anti-HA

B1: binds [1].

B2: binds [2]; binds [3].

B3: binds [4].

B4: binds [5].

B5: binds [5].

B6: binds [5].
